In patent publication US20230277628A1, “METHODS FOR PROMOTING ANTI-TUMOR IMMUNE RESPONSE IN A SUBJECT IN NEED THEREOF USING ENCAPSULATED INTERLEUKIN 12” (Spectrum Pharmaceuticals, Inc., priority 2022, published 2023):

B1: rmIL-12: mouse recombinant IL-12, unencapsulated control; 1 µg equivalent to mPCX12 1 mg (protein, UniProt P43431 23-215; P43432 23-335, looked up)
Interleukin-12 subunit alpha: RVIPVSGPARCLSQSRNLLKTTDDMVKTAREKLKHYSCTAEDIDHEDITRDQTSTLKTCLPLELHKNESCLATRETSSTTRGSCLPPQKTSLMMTLCLGSIYEDLKMYQTEFQAINAALQNHNHQQIILDKGMLVAIDELMQSLNHNGETLRQKPPVGEADPYRVKMKLCILLHAFSTRVVTINRVMGYLSSA
Interleukin-12 subunit beta: MWELEKDVYVVEVDWTPDAPGETVNLTCDTPEEDDITWTSDQRHGVIGSGKTLTITVKEFLDAGQYTCHKGGETLSHSHLLLHKKENGIWSTEILKNFKNKTFLKCEAPNYSGRFTCSWLVQRNMDLKFNIKSSSSSPDSRAVTCGMASLSAEKVTLDQRDYEKYSVSCQEDVTCPTAEETLPIELALEARQQNKYENYSTSFFIRDIIKPDPPKNLQMKPLKNSQVEVSWEYPDSWSTPHSYFSLKFFVRIQRKKEKMKETEEGCNQKGAFLVEKTSTEVQCKGGNVCVQAQDRYYNSSCSKWACVPCRVRS

How the values were obtained:
[1] = tested on: GL-261 glioma cells; experiment: Survival in the GL-261 orthotopic murine glioma model; assay type: in vivo; details: for # censored mice: n=22, Day 71
Procedure: (§1) In an orthotopic murine glioma model, C57B6 mice were inoculated with 3 × 10^5 GL-261 glioma cells in the frontal lobe via intracranial injection with drug treatment on Day 5. Mice were randomly assigned (n=22/group) to receive a single intratumoral dose of mPCX12 at 0.5, 0.75, and 1 mg, or mrIL-12 1 µg (equivalent to mPCX12 1 mg) or empty shells or vehicle. In addition, lomustine (6 mg/kg, QDx5 i.p.) was also assessed. […] At 1 mg mPCX12, tumor IL-12 and IFNy levels were 2069±631 and 646±8 pg/mg respectively on Day 3. […] At Day 90, 41%, 45%, and 55% of the animals that received doses of 0.5, 0.75 or 1 mg mPCX12, respectively, were alive with median survival >90 days (last day of study).
In a second study, GL-261 inoculated mice (n=22 per group) received a single dose of mPCX12 at 0.5, 0.75, and 1 mg. Control treatment groups were, mrIL-12, 0.5 and 1 µg (equivalent to mPCX12 0.5 and 1 mg) or empty shells (1 mg) or vehicle control intratumoral. In addition, lomustine (6 mg/kg, QDx5 i.p.) was also assessed. Day 71 was the last day of the study. Animals were euthanized when they became moribund.
PCX12 (1 mg) >50% of mice survived to the end of the study (Day 71) and were tumor-free.

[2] = tested on: GL-261 glioma cells; design: species or system C57B6 mice; details: mouse, in vivo
Procedure: as §1
In the first study, six days post GL-261 inoculation, a single dose of mPCX12 at 0.5, 0.75, and 1 mg was administered to 4 animals per timepoint (TP). Control treatment groups were, mrIL-12 1 µg (equivalent to mPCX12 1 mg) or empty shells. In addition, lomustine (6 mg/kg, QDx5 i.p.) was also assessed. At 3- and 7-days post drug administration, animals were euthanized, serum and tumor IL-12 and IFN-γ levels were determined via ELISA.
Low levels of IL-12 and IFN-γ observed in the systemic circulation of mPCX12 and mrIL-12 groups. FIGS. 1A-D: All values expressed as Mean +/- SEM; n=4 per timepoint; ND: Not Detected.

Molecule	% alive at 71 Days Post Treatment ([1]; Lomustine 6 mg/kg QDx5 i.p.)	# censored mice ([1]; Lomustine 6 mg/kg QDx5 i.p.)	Median survival ([1]; Lomustine 6 mg/kg QDx5 i.p., study end Day 71)	Median survival ([1]; lomustine 6 mg/kg QDx5 i.p., text b126 (last day of study Day 90))	IL-12 and IFNγ in the systemic circulation [2]	tumor IL-12 persistence by Day 7 [2]	Median survival ([1]; mrIL-12 1 µg intratumoral, text b126 (last day of study Day 90))	% alive at 71 Days Post Treatment ([1]; rmIL-12 0.5 µg)	Median survival ([1]; rmIL-12 0.5 µg intratumoral, study end Day 71)	# censored mice ([1]; rmIL-12 0.5 µg)	% alive at 71 Days Post Treatment ([1]; rmIL-12 1 µg)	Median survival ([1]; rmIL-12 1 µg intratumoral, study end Day 71)	# censored mice ([1]; rmIL-12 1 µg)
O=NN(CCCl)C(=O)NC1CCCCC1 [Lomustine, lomustine, reference compound]	18%	4	38 days	20 days									
B1					Low levels	returned to baseline	37 days	45%	38 days	10	41%	37 days	9
